Where two headings read alike, the source gives them in different places.
Key:
gp11 = tested on: T1, gp11; assay: coupled pyruvate kinase / lactate dehydrogenase assay, NADH absorbance at […] nm; format: biochemical, Lactococcus phage asccphi28; details: 0.1 µM gp11, 50 mM Tris pH 7.5, 72 mM KCl, 7.2 mM MgSO4, 2 mM PEP, 0.3 mM NADH
T1 construct: E. coli BL21(DE3)

[1] = target: gene product 11 (gp11), DNA packaging ATPase from Lactococcus lactis phage asccφ28 (Lactococcus lactis phage asccφ28); assay: AUC
[2] = target: gene product 11 (gp11), DNA packaging ATPase from Lactococcus lactis phage asccφ28 (Lactococcus lactis phage asccφ28); assay: SEC
[3] = target: gene product 11 (gp11), DNA packaging ATPase from Lactococcus lactis phage asccφ28 (Lactococcus lactis phage asccφ28); assay: AUC; sedimentation velocity, data not shown

Nc1ncnc2c1ncn2[C@@H]1O[C@H](COP(=O)(O)OP(=O)(O)OP(=O)(O)O)[C@@H](O)[C@H]1O [ATP]
Km (gp11; read-out: ATP): 28 µM

Nc1nc2c(ncn2[C@@H]2O[C@H](COP(=O)(O)OP(=O)(O)OP(=O)(O)O)[C@@H](O)[C@H]2O)c(=O)[nH]1 [GTP]
Km (gp11; read-out: GTP): 344 µM

gene product 11 (gp11), DNA packaging ATPase from Lactococcus lactis phage asccφ28 (enzyme)
stoichiometry N [1]: 10 monomers
stoichiometry N [2]: 4 to 15 copies
stoichiometry N [3]: 10 monomers
